# Test results as given in patent US20050227220A1, “Compositions and Methods for Evaluating and Designing Nuclear Receptor Ligands that Modulate Co-Regulator Affinity” (priority 2002, published 2005).
# No end group written: not given here. *: point of attachment. Biotin = O=C1N[C@H]2[C@H](CS[C@H]2CCCCC(=O)*)N1
# T1: PPARδ LBD / RXRα LBD (Homo sapiens, UniProt Q03181)
# T1 sequence (Q03181 139-441): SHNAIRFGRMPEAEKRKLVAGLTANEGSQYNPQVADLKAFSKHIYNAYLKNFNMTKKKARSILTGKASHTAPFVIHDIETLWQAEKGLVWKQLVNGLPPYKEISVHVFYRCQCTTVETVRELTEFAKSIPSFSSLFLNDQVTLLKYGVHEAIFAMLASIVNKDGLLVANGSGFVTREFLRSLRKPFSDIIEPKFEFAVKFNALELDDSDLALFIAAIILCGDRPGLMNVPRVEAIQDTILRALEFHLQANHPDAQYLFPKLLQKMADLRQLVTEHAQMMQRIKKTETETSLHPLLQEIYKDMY
# T1 sequence (P19793 225-462 partner limits assumed): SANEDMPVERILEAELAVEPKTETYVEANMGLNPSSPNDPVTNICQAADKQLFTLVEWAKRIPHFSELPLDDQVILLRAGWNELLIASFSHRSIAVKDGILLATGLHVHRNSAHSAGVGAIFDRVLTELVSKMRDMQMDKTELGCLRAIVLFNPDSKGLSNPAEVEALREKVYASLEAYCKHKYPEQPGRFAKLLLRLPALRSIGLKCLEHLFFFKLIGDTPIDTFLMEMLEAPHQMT
# T2: full length human PPARα (Homo sapiens, UniProt Q07869)
# T2 construct: expressed in transfected cells; host or cells: CV-1 cells, vector pVP16 (Clonetech)
# T2 sequence (Q07869 1-468): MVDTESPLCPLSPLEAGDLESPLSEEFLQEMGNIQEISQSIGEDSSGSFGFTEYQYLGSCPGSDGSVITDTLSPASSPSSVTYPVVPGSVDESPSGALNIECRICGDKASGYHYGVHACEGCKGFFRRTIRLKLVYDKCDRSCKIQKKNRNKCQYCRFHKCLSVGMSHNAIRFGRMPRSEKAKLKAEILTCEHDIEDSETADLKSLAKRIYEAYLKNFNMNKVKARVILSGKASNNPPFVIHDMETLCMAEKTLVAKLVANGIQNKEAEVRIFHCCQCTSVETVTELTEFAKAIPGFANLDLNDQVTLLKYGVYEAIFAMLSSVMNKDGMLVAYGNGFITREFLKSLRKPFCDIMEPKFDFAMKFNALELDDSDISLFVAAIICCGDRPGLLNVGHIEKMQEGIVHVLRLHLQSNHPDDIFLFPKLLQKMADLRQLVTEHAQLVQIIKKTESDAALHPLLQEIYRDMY
# T3: PPARδ LBD (Homo sapiens, UniProt Q03181)
# T3 construct: made in house; host or cells: bacterial BL21-DE3, vector pRSETA
# T3 sequence (Q03181 139-441): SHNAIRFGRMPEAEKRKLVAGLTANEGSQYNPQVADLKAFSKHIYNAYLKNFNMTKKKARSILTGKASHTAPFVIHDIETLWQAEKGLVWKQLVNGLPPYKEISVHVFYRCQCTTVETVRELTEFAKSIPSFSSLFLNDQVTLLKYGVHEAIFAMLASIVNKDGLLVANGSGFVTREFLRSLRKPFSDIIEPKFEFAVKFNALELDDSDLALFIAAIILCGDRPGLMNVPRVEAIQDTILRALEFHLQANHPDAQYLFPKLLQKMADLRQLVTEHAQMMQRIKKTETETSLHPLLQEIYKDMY
# T4: PPARα LBD (Homo sapiens, UniProt Q07869)
# T4 construct: made in house; host or cells: bacterial BL21-DE3, vector pRSETA
# T4 sequence (Q07869 192-468): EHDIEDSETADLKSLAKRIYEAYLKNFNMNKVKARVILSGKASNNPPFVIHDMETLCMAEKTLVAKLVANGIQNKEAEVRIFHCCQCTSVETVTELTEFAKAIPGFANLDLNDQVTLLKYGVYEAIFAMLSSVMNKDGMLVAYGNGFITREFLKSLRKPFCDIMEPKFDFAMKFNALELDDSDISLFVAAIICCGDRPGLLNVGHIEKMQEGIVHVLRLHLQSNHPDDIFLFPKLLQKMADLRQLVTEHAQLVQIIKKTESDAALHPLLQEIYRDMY
# T5: human PPARγ ligand binding domain (amino acids 206-477) (human, UniProt P37231-2 206-477)
# T5 construct: range 206-477; placed at the N-terminus here; Biotinylated for FRET; also called PPARγ LBD
# T5 sequence: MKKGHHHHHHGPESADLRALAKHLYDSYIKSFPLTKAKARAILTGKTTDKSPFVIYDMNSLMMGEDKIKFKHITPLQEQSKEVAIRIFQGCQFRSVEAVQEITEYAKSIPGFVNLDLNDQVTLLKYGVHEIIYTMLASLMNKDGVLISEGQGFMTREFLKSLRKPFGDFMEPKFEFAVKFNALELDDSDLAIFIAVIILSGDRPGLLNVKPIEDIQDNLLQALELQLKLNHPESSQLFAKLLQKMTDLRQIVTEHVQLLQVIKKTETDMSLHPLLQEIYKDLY
# T6: human PPARδ ligand binding domain (amino acids 139-441) (human, UniProt Q03181 139-441, Biotinylated (site not stated) in the FRET assays; unlabelled in fluorescence polarization and SPR.)
# T6 construct: placed at the N-terminus here; Biotinylated for FRET; also called PPARδ LBD
# T6 sequence: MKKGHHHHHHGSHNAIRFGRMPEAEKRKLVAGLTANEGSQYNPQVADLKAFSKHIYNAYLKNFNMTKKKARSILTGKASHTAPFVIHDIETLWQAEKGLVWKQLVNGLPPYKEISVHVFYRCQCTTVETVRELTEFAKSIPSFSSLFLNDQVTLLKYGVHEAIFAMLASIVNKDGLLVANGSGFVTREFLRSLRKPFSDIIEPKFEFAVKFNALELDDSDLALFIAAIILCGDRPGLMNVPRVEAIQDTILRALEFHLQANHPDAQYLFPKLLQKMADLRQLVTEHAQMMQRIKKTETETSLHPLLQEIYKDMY
# Columns and labels:
# PPARδ LBD / RXRα LBD = target: T1, PPARδ LBD / RXRα LBD; assay: FRET assay: ligand effect on RXRα LBD binding to PPAR LBD; settings: 10 nM PPAR LBD, 4 concentrations of RXR
# full length human PPARα = target: T2, full length human PPARα; assay: Mammalian two-hybrid assay (CV-1 cells); type: cell-based; settings: VP16-PPARα, GAL4-NCoR (2239-2300), result in words
# From the text: (§1) Mammalian two-hybrid assays were used to examine the ability of the tyrosine-based class of PPAR ligands to promote association or dissociation of the co-activator CBP and the corepressor NCoR in the context of a cellular environment. The assays for the three PPAR subtypes used full length human PPARα, PPARγ2 or PPARδ fused to the activation domain of VP16 and previously identified interaction domains of CBP and NCoR fused to the DNA binding domain of GAL4.
# (§2) Expression plasmids for the VP16-human PPAR constructs were prepared by inserting amplified cDNAs encoding full length PPARα, PPARγ2 and PPARδ fused to amino acids 410-490 of the VP16 viral activation domain, into the expression vector pVP16 (Clonetech). […] The reporter plasmid was (UAS)5-tk-SPAP, and the internal control plasmid for all transfections was β-galactosidase expression vector (pCH110, Amersham).
# (§3) CV-1 cells were maintained in culture in DME high glucose medium supplemented with 10% FBS and 2 mM glutamine in a humidified incubator (5% CO2 in air) at 37° C. Cells were harvested 72 hours prior to experimental use and placed in phenol red free D-MEM/F-12 medium with 15 mM HEPES supplemented with 10% charcoal/dextran-treated FBS (HyClone, Logan, Utah). The cells were harvested and seeded at 2.0×10^4 cell per well in a 96-well plate the day prior to transfection. Cells were transfected for 16 hr using Lipofectamine (Life Technologies, Inc., Rockville, Md.) essentially according to the manufacturer's instructions. The total amount of DNA transfected into each well was 80 ng. Transfection mixtures contained 8 ng VP16-PPAR plasmid, 8 ng SPAP reporter, 25 ng of pCH110(β-galactosidase) control plasmid, 35 ng of pBluescript II KS+ (Clonetech) and 4 ng of either coactivator or corepressor plasmid. Transfection quantities for full length PPAR and cofactor plasmids were optimized to generate a signal that was half of the maximal activation. These conditions would allow for dissociation or association to be experimentally determined for each ligand evaluated. Stock solutions of drugs were prepated in DMSO and dilutions were made in phenol red-free D-MEM/F-12 with 15 mM HEPES supplemented with 10% charcoal stripped, delipidated, heat inactivated (62° C. for 35 min) bovine calf serum (Sigma, St. Louis, Mo.) such that the final concentration of DMSO was 0.1%. Transfection mixtures were aspirated and 100 μl, of medium containing drug was added to each well.
# full length human PPARδ = target: T7, full length human PPARδ (Homo sapiens, UniProt Q03181); assay: Mammalian two-hybrid assay (CV-1 cells); type: cell-based; settings: VP16-PPARδ, GAL4-NCoR (2239-2300), result in words
# T7 construct: expressed in transfected cells; host or cells: CV-1 cells, vector pVP16 (Clonetech)
# T7 sequence (Q03181 whole entry, the tested form may be a part): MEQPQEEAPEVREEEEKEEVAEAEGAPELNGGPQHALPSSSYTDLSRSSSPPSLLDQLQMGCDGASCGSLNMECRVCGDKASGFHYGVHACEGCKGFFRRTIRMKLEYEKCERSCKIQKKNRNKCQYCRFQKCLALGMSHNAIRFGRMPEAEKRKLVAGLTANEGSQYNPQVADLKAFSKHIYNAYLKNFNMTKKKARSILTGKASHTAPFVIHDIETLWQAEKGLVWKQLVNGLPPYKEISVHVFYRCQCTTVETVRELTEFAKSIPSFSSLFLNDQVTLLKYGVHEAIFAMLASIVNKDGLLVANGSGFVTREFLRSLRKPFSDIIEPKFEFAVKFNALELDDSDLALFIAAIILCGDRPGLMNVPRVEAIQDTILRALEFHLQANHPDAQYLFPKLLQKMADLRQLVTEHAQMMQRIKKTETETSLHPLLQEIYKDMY
# From the text: as §1, §2, §3
# PPARδ LBD [1] = target: T3, PPARδ LBD; assay: Fluorescence polarization assay for ligand modulation of nuclear receptor/cofactor peptide affinities; type: biochemical; settings: result in words
# Description: Such tests were performed quantitatively by measuring the effect of an excess of ligand on the binding affinity of the co-repressor peptide.
# All experiments were conducted with buffer containing 10 mM HEPES, pH 7.4, containing 0.15 M NaCl, 3 mM EDTA, 0.005% polysorbate-20 and 5 mM DTT. Varied concentrations of receptor were incubated at room temperature with 10 nM of fluorescein-labeled NCOR ID-C or SMRT ID-C peptides. […] Binding isotherms were constructed and apparent KD values were determined by non-linear least squares fit of the data to an equation for a simple 1:1 interaction. […] Complex formation was monitored by fluorescence polarization as described in methods. […] All assays were performed in duplicate and affinities are the average of at least two independent experiments.
# PPARδ LBD [2] = target: T3, PPARδ LBD; assay: FRET assay: ligand effect on CBP fragment / NCoR ID-C binding to PPAR LBD; type: biochemical
# From the text: (§4) The experimentally determined α value is the ratio of cofactor affinities in the presence and absence of a saturating concentration of ligand. This analysis permits a direct comparison of the effects of compounds, independent of cofactor concentration and differences in coregulator affinity for the individual receptors. […] 98(9): p.
# (§5) The effects of the coregulator environment on the apparent affinities and selectivities of various ligands were than examined. Experimentally determined pKs and the α values derived from the FRET assay were used to calculate the apparent affinity of the ligand for the receptor/cofactor complex (i.e. K/α).
# (§6) FIG. 5 illustrates the effect of ligands on coactivator and corepressor binding to PPAR subtypes determined by FRET.
# PPARα LBD = target: T4, PPARα LBD; assay: as above; type: biochemical; settings: 10 nM PPAR LBD, CBP (57-454)
# From the text: as §4, §5, §6
# [3] = target: T8, VP16-human PPARδ (full length) (human, UniProt P06492 410-490; Q03181 1-441); assay: mammalian two-hybrid in CV-1 cells
# T8 construct: also called VP16 full length PPARδ
# [4] = target: T9, VP16-human PPARγ2 (full length) (human, UniProt P06492 410-490; P37231 1-505); assay: mammalian two-hybrid in CV-1 cells
# T9 construct: also called VP16 full length PPARγ
# [5] = target: T10, VP16-human PPARα (full length) (human, UniProt P06492 410-490; Q07869 1-468); assay: mammalian two-hybrid in CV-1 cells
# T10 construct: also called VP16 full length PPARα
# [6] = target: T5, human PPARγ ligand binding domain …; assay: fluorescence polarization, apparent affinity, with rosiglitazone
# [7] = target: T6, human PPARδ ligand binding domain …; assay: as above
# [8] = target: T5, human PPARγ ligand binding domain …; assay: fluorescence polarization, apparent affinity, with GW1929
# [9] = target: T6, human PPARδ ligand binding domain …; assay: as above
# [10] = target: T5, human PPARγ ligand binding domain …; assay: fluorescence polarization, apparent affinity, no ligand
# [11] = target: T6, human PPARδ ligand binding domain …; assay: as above
molecule,measurement,setting,value
CN(CCOc1ccc(C[C@H](Nc2ccccc2C(=O)c2ccccc2)C(=O)O)cc1)c1ccccn1 [GW1929],promotion of association of PPARδ with RXR,PPARδ LBD / RXRα LBD,most effective
same,effect on PPARα interaction with NCoR,full length human PPARα,neither GW1929 nor GW7845 were able to promote association with NCoR
same,effect on PPARδ interaction with NCoR,full length human PPARδ,slightly promote association
same,effect on PPARδ interaction with the coactivator peptide (TRAP220),PPARδ LBD [1],little or no effect
same,effect on apparent affinity of PPARδ for the co-activator fragment from CBP,"PPARδ LBD [2]; 10 nM PPAR LBD, CBP (57-454)",increased the apparent affinity
same,effect on affinity of PPARδ for the co-repressor peptide,"PPARδ LBD [2]; 10 nM PPAR LBD, NCoR ID-C",greatest effect
same,log α (NCoR association with PPARδ),PPARδ LBD [2]; α = ratio of cofactor affinities in presence and absence of saturating ligand,0.52
same,effect on apparent affinity of PPARα for the co-activator fragment from CBP,PPARα LBD,increased the apparent affinity
"GAL4-NcoR (2012-2103) (other, range 1-147;range 2012-2103; also called NCoR fragment (2012-2103) that contained NCoR ID-N) MKLLSSIEQACDICRLKKLKCSKEKPKCAKCLKNNWECRYSPKTKRSPLTRAHLTEVESRLERLEQLFLLIFPREDLDMILKMDSLQDIKALLTGLFVQDNVNKDAVTDRLASVETDMPLTLRQHRISATSSSEESSNKGQRQLTVSGPLHHYRPQQESPSPQQQLPPSSQAEGMGQVPRTHRLITLADHICQIITQDFARNQVSSQTPQQPPTSTFQNSPSALVSTPVRTKTSNRYSP",binding result,[3],no binding
same,binding result,[4],no binding
same,binding result,[5],no binding
"Biotin-GHGEDFSKVSQNPILTSLLQITGNG (not fully specified; printed as biotin-GHGEDFSKVSQNPILTSLLQITGNG, also called TRAP220 575-599) [TRAP220 peptide (amino acids 575-599)]",Kd,[6],1500 nM
same,Kd,[7],1800 nM
same,Kd,[8],790 nM
same,Kd,[9],3400 nM
same,Kd,[10],3900 nM
same,Kd,[11],2300 nM
